Source: IntAct's records for PubMed 20059542

B1: UV excision repair protein RAD23 homolog B (Homo sapiens), P54727 (parent)
chain: MQVTLKTLQQQTFKIDIDPEETVKALKEKIESEKGKDAFPVAGQKLIYAGKILNDDTALKEYKIDEKNFVVVMVTKPKAVSTPAPATTQQSAPASTTAVTSSTTTTVAQAPTPVPALAPTSTPASITPASATASSEPAPASAAKQEKPAEKPAETPVATSPTATDSTSGDSSRSNLFEDATSALVTGQSYENMVTEIMSMGYEREQVIAALRASFNNPDRAVEYLLMGIPGDRESQAVVDPPQAASTGAPQSSAVAAAAATTTATTTTTSSGGHPLEFLRNQPQFQQMRQIIQQNPSLLPALLQQIGRENPQLLQQISQHQEHFIQMLNEPVQEAGGQGGGGGGGSGGIAEAGSGHMNYIQVTPQEKEAIERLKALGFPEGLVIQAYFACEKNENLAANFLLQQNFDED
B2: 26S proteasome non-ATPase regulatory subunit 4 (Homo sapiens), P55036 (parent)
chain: MVLESTMVCVDNSEYMRNGDFLPTRLQAQQDAVNIVCHSKTRSNPENNVGLITLANDCEVLTTLTPDTGRILSKLHTVQPKGKITFCTGIRVAHLALKHRQGKNHKMRIIAFVGSPVEDNEKDLVKLAKRLKKEKVNVDIINFGEEEVNTEKLTAFVNTLNGKDGTGSHLVTVPPGPSLADALISSPILAGEGGAMLGLGASDFEFGVDPSADPELALALRVSMEEQRQRQEEEARRAAAASAAEAGIATTGTEDSDDALLKMTISQQEFGRTGLPDLSSMTEEEQIAYAMQMSLQGAEFGQAESADIDASSAMDTSEPAKEEDDYDVMQDPEFLQSVLENLPGVDPNNEAIRNAMGSLASQATKDGKKDKKEEDKK

Variants of: B1
Conditions: with ubc_human UBC

effect of a mutation on the interaction | Variant
decreasing interaction strength | L376A;G377A;F378A
disrupting interaction strength | M200A;G201A;Y202A;L376A;G377A;F378A

Variants of: B1
Conditions: with psmd4_human PSMD4, P55036

effect of a mutation on the interaction | Variant
disrupting interaction | L8A

Variants of: B1
Conditions: with ubc_human UBC
Remark: another data set of the same source

effect of a mutation on the interaction | Variant
decreasing interaction strength | M200A;G201A;Y202A

Variants of: B2
Conditions: with ubql1_human UBQLN1, Q9UMX0
Chain of ubql1_human UBQLN1, Q9UMX0 (Q9UMX0 whole entry): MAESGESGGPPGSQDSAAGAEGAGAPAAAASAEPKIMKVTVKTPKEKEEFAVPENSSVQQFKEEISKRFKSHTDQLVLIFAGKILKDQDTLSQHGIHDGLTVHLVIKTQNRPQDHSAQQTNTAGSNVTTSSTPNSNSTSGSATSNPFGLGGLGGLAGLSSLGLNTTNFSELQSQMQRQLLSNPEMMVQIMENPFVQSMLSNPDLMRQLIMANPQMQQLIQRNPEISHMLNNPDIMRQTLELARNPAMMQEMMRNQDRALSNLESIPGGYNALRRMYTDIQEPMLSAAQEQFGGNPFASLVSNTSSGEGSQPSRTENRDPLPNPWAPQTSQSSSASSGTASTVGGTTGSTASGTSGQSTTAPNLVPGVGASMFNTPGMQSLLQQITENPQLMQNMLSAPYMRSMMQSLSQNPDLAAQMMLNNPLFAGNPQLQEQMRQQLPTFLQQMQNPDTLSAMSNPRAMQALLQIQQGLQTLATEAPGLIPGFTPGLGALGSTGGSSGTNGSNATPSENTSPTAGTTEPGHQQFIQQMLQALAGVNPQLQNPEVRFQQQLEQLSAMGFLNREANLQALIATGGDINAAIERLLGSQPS

effect of a mutation on the interaction | Variant
disrupting interaction strength | MVLESTMVCVDNSEYMRNGDFLPTRLQAQQDAVNIVCHSKTRSNPENNVGLITLANDCEVLTTLTPDTGRILSKLHTVQPKGKITFCTGIRVAHLALKHRQGKNHKMRIIAFVGSPVEDNEKDLVKLAKRLKKEKVNVDIINFGEEEVNTEKLTAFVNTLNGKDGTGSHLVTVPPGPSLADALISSPILAGEGGAMLGLGASDFEFGVDPSADPENNNNNRVSMEEQRQRQEEEARRAAAASAAEAGIATTGTEDSDDALLKMTISQQEFGRTGLPDLSSMTEEEQNNNNNQMSLQGAEFGQAESADIDASSAMDTSEPAKEEDDYDVMQDPEFLQSVLENLPGVDPNNEAIRNAMGSLASQATKDGKKDKKEEDKK [L216N;A217N;L218N;A219N;L220N;I287N;A288N;Y289N;A290N;M291N]
decreasing interaction strength | MVLESTMVCVDNSEYMRNGDFLPTRLQAQQDAVNIVCHSKTRSNPENNVGLITLANDCEVLTTLTPDTGRILSKLHTVQPKGKITFCTGIRVAHLALKHRQGKNHKMRIIAFVGSPVEDNEKDLVKLAKRLKKEKVNVDIINFGEEEVNTEKLTAFVNTLNGKDGTGSHLVTVPPGPSLADALISSPILAGEGGAMLGLGASDFEFGVDPSADPENNNNNRVSMEEQRQRQEEEARRAAAASAAEAGIATTGTEDSDDALLKMTISQQEFGRTGLPDLSSMTEEEQIAYAMQMSLQGAEFGQAESADIDASSAMDTSEPAKEEDDYDVMQDPEFLQSVLENLPGVDPNNEAIRNAMGSLASQATKDGKKDKKEEDKK [L216N;A217N;L218N;A219N;L220N]

Variants of: B2
Conditions: with ubql2_human UBQLN2, Q9UHD9
Chain of ubql2_human UBQLN2, Q9UHD9 (Q9UHD9 whole entry): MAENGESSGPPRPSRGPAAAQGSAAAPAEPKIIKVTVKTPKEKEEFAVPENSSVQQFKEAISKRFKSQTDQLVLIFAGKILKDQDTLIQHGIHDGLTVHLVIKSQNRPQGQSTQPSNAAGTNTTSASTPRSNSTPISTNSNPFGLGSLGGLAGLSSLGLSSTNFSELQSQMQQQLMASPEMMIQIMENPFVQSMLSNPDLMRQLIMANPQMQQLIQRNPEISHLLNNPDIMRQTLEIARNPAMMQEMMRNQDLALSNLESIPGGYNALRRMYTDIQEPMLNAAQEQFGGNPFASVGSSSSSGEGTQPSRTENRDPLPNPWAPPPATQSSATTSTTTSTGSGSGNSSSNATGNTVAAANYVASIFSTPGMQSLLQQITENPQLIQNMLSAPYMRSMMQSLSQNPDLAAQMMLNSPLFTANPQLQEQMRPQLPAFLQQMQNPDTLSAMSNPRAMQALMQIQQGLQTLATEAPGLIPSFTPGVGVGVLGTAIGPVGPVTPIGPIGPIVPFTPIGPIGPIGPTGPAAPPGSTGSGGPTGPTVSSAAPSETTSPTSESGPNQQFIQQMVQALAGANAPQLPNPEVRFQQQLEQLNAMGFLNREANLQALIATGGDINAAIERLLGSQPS

effect of a mutation on the interaction | Variant
disrupting interaction strength | MVLESTMVCVDNSEYMRNGDFLPTRLQAQQDAVNIVCHSKTRSNPENNVGLITLANDCEVLTTLTPDTGRILSKLHTVQPKGKITFCTGIRVAHLALKHRQGKNHKMRIIAFVGSPVEDNEKDLVKLAKRLKKEKVNVDIINFGEEEVNTEKLTAFVNTLNGKDGTGSHLVTVPPGPSLADALISSPILAGEGGAMLGLGASDFEFGVDPSADPENNNNNRVSMEEQRQRQEEEARRAAAASAAEAGIATTGTEDSDDALLKMTISQQEFGRTGLPDLSSMTEEEQNNNNNQMSLQGAEFGQAESADIDASSAMDTSEPAKEEDDYDVMQDPEFLQSVLENLPGVDPNNEAIRNAMGSLASQATKDGKKDKKEEDKK [L216N;A217N;L218N;A219N;L220N;I287N;A288N;Y289N;A290N;M291N]
with no effect | MVLESTMVCVDNSEYMRNGDFLPTRLQAQQDAVNIVCHSKTRSNPENNVGLITLANDCEVLTTLTPDTGRILSKLHTVQPKGKITFCTGIRVAHLALKHRQGKNHKMRIIAFVGSPVEDNEKDLVKLAKRLKKEKVNVDIINFGEEEVNTEKLTAFVNTLNGKDGTGSHLVTVPPGPSLADALISSPILAGEGGAMLGLGASDFEFGVDPSADPENNNNNRVSMEEQRQRQEEEARRAAAASAAEAGIATTGTEDSDDALLKMTISQQEFGRTGLPDLSSMTEEEQIAYAMQMSLQGAEFGQAESADIDASSAMDTSEPAKEEDDYDVMQDPEFLQSVLENLPGVDPNNEAIRNAMGSLASQATKDGKKDKKEEDKK [L216N;A217N;L218N;A219N;L220N]

Variants of: B2
Conditions: with dsk2_yeast DSK2, P48510
Chain of dsk2_yeast DSK2, P48510 (P48510 whole entry): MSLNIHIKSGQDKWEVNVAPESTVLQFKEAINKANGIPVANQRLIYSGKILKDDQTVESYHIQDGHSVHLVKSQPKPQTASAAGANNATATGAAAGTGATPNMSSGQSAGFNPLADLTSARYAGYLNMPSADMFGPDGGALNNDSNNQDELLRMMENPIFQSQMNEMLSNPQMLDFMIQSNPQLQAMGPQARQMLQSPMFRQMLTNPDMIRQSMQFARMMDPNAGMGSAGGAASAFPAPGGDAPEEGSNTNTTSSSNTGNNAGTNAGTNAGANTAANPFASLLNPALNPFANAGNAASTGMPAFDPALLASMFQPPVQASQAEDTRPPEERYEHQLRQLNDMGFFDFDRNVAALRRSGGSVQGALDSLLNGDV

effect of a mutation on the interaction | Variant
disrupting interaction strength | MVLESTMVCVDNSEYMRNGDFLPTRLQAQQDAVNIVCHSKTRSNPENNVGLITLANDCEVLTTLTPDTGRILSKLHTVQPKGKITFCTGIRVAHLALKHRQGKNHKMRIIAFVGSPVEDNEKDLVKLAKRLKKEKVNVDIINFGEEEVNTEKLTAFVNTLNGKDGTGSHLVTVPPGPSLADALISSPILAGEGGAMLGLGASDFEFGVDPSADPENNNNNRVSMEEQRQRQEEEARRAAAASAAEAGIATTGTEDSDDALLKMTISQQEFGRTGLPDLSSMTEEEQNNNNNQMSLQGAEFGQAESADIDASSAMDTSEPAKEEDDYDVMQDPEFLQSVLENLPGVDPNNEAIRNAMGSLASQATKDGKKDKKEEDKK [L216N;A217N;L218N;A219N;L220N;I287N;A288N;Y289N;A290N;M291N]
disrupting interaction strength | MVLESTMVCVDNSEYMRNGDFLPTRLQAQQDAVNIVCHSKTRSNPENNVGLITLANDCEVLTTLTPDTGRILSKLHTVQPKGKITFCTGIRVAHLALKHRQGKNHKMRIIAFVGSPVEDNEKDLVKLAKRLKKEKVNVDIINFGEEEVNTEKLTAFVNTLNGKDGTGSHLVTVPPGPSLADALISSPILAGEGGAMLGLGASDFEFGVDPSADPENNNNNRVSMEEQRQRQEEEARRAAAASAAEAGIATTGTEDSDDALLKMTISQQEFGRTGLPDLSSMTEEEQIAYAMQMSLQGAEFGQAESADIDASSAMDTSEPAKEEDDYDVMQDPEFLQSVLENLPGVDPNNEAIRNAMGSLASQATKDGKKDKKEEDKK [L216N;A217N;L218N;A219N;L220N]

Variants of: B2
Conditions: with rd23b_human RAD23B

effect of a mutation on the interaction | Variant
disrupting interaction strength | MVLESTMVCVDNSEYMRNGDFLPTRLQAQQDAVNIVCHSKTRSNPENNVGLITLANDCEVLTTLTPDTGRILSKLHTVQPKGKITFCTGIRVAHLALKHRQGKNHKMRIIAFVGSPVEDNEKDLVKLAKRLKKEKVNVDIINFGEEEVNTEKLTAFVNTLNGKDGTGSHLVTVPPGPSLADALISSPILAGEGGAMLGLGASDFEFGVDPSADPENNNNNRVSMEEQRQRQEEEARRAAAASAAEAGIATTGTEDSDDALLKMTISQQEFGRTGLPDLSSMTEEEQNNNNNQMSLQGAEFGQAESADIDASSAMDTSEPAKEEDDYDVMQDPEFLQSVLENLPGVDPNNEAIRNAMGSLASQATKDGKKDKKEEDKK [L216N;A217N;L218N;A219N;L220N;I287N;A288N;Y289N;A290N;M291N]
decreasing interaction strength | MVLESTMVCVDNSEYMRNGDFLPTRLQAQQDAVNIVCHSKTRSNPENNVGLITLANDCEVLTTLTPDTGRILSKLHTVQPKGKITFCTGIRVAHLALKHRQGKNHKMRIIAFVGSPVEDNEKDLVKLAKRLKKEKVNVDIINFGEEEVNTEKLTAFVNTLNGKDGTGSHLVTVPPGPSLADALISSPILAGEGGAMLGLGASDFEFGVDPSADPENNNNNRVSMEEQRQRQEEEARRAAAASAAEAGIATTGTEDSDDALLKMTISQQEFGRTGLPDLSSMTEEEQIAYAMQMSLQGAEFGQAESADIDASSAMDTSEPAKEEDDYDVMQDPEFLQSVLENLPGVDPNNEAIRNAMGSLASQATKDGKKDKKEEDKK [L216N;A217N;L218N;A219N;L220N]
